Measurements published in patent publication US20040072750A1, “Compounds and methods for the modulation of CD154” (priority 2001, published 2004).
Bridge positions count the residues as written; N and C are the ends. Square brackets hold non-standard residues; d marks the D form. Peptide text beside a SMILES is read from it. hArg = N=C(N)NCCCC[C@H](N)C(=O)O; Mpa = O=C(O)CCS

Key:
platelets in whole blood = assay: Perfusion chamber: thrombus formation of whole blood on protein-coated surface under shear; type: cell-based, human
Description: The effect of CD154 on the aggregation of platelets under conditions of high shear stress were evaluated. Recombinant CD154 (rCD154 or rCD40L) was compared to fibrinogen (Fg) in its ability to form thrombi as well as in combination with Fg. Controls also included CD154 in which the KGD eptifibatide-recognition sequence was mutated to KGE (CD154(KGE) or CD40L(KGE)). Briefly, a silicone gasket with a flow path height of 127 μm was placed between a flat perfusion chamber (Glycotech, Rockville, Md.) and a protein-coated petri dish as described (Andre, P. et al., Nature Medicine, 8:247-252 (2002)). Petri dishes were coated with rCD40L, Fibrinogen (Fg), rCD40L+Fg, mutated CD40L (CD40L(KGE)), CD40L(KGE)+Fg. In one experiment, the glycoprotein IIb/IIIa antagonist eptifibatide (2 μM) was incubated with whole blood before perfusion over the rCD40L-coated surface. When Fg was coated with either rCD40L or CD40L(KGE), each molecule was deposited at 25 μg/cm^2. Coating of the proteins was performed using the spray method in which 25 μl of a 1 mg/ml protein solution is coated onto the plastic with a retouching air brush resulting in a concentration of 25 μg/cm^2 (Houdijk, WP et al., J. Clin. Invest., 75:531-540 (1985)). Human peripheral blood was collected on PPACK (40 μmol/L final concentration) and perfused for 4 minutes over the protein-coated surface. Shear rates of 1500-1600/s, 500-600/s and 100-200/s, were generated with flow rates of ˜0.6, 0.25 and 0.075 ml/min, respectively. Measurements of thrombotic deposits were performed using the Simple PCI software image analysis program (Technical Instrument, Burlingame, Calif.).

washed platelets = assay: Fibrinogen binding to washed platelets and microparticle generation (flow cytometry); type: cell-based, human
Description: Venous blood was collected from normal donors into ACD buffer (85 mM Sodium Citrate, […] and 71 mM Citric acid) containing 0.05 μg/ml prostaglandin 12(PGI2). Blood was later centrifuged at 160×g for 20 minutes to collect platelet rich plasma (PRP). PRP was centrifuged at 1100×g for 10 minutes to sediment platelets. Platelets were washed twice with CGS buffer (13 mM trisodium citrate, 120 mM sodium chloride and 30 mM dextrose pH 7.0). The first wash had 0.03 μg/ml PGI2. Washed platelets were finally suspended in Tyrodes-Hepes buffer (12 mM sodium bi-carbonate, 138 mM sodium chloride, 5.5 mM glucose, 2.9 mM potassium chloride, 10 mM Hepes, 1 mM calcium chloride and 1 mM magnesium chloride, pH 7.4).
Washed platelets (1×10^7/ml) were incubated for 60 minutes at 37° C. with 2 μM soluble CD154 (sCD154) or mutant sCD154 (D117E mutation in the KGD sequence) in the presence or absence of eptifibatide or anti-CD40 antibody. All incubations had 100 nM Alexa-Fibrinogen (Molecular probes, Eugene, Oreg.). Samples were diluted 10 fold with stain buffer (BD Pharmingen, Los Angeles, Calif.) after incubation and analyzed by flow cytometry (FACSort, BD, San Jose, Calif.).

CD154−/− mice = assay: Intravital microscopy thrombosis model of the mouse mesentery (FeCl3-injured arteriole); type: in vivo; conditions: single dose 26 μg/mouse, 5 to 10 minutes before arteriole injury
Description: The role of CD154 in thrombus formation was investigated using a model that compares wild type (WT) mice with CD154−/− mice that have impaired thrombosis. […] It was observed that the occlusion time is approximately twice as long in the CD 154−/− mouse as in wild type, apart from any other treatment effect.
In this example, the recombinant form of the soluble CD154 was infused into the CD154−/− mouse. Thrombus formation was evaluated using the model as described below.
To perform the investigation, the intravital microscopy thrombosis model of the mouse mesentery was used (Denis et al., PNAS, 95:9524-9, (1998)). The interactions of fluorescently-labeled platelets with a FeCl3-injured arteriolar vessel wall (shear rate ˜1300 s^−1) were analyzed. […]
Immediately after infusion of fluorescent platelets into mice of matching genotypes (4- to 5-weeks old C57BL6J and CD154−/−), animals were anesthetized with 2.5% tribromoethanol (0.15 mL/10 g). […] The shear rate (1000 to 1300 s^−1) was calculated using an optical Doppler velocimeter using known methods (see, e.g., Blood, November 2000). […]
Resting blood vessel was recorded for 2 minutes, then Ferric Chloride (30 μl of a 250-mM solution) was superfused, and video recording was resumed for another 40 minutes, or until full occlusion occurred and lasted for more than 10 seconds. […]

Molecule	Binding of platelets to the rCD40L (platelets in whole blood; eptifibatide 2 μM incubated with whole blood)	effect on sCD154-induced fibrinogen binding and microparticle generation (washed platelets; 2 μM sCD154, eptifibatide 2.5 μM)	thrombotic process (occlusion) in CD154−/− mice (CD154−/− mice)	aggregation process (mean thrombus area) on coated surface versus Fg (platelets in whole blood; shear rate of 1500-1600/s, 25 μg/cm^2 coating)	fibrinogen binding to platelets and generation of microparticles (washed platelets; 2 μM protein, 60 minutes at 37° C., FIG. 10)
N=C(N)NCCCC[C@@H]1NC(=O)CCSSC[C@@H](C(N)=O)NC(=O)[C@@H]2CCCN2C(=O)[C@H](Cc2c[nH]c3ccccc23)NC(=O)[C@H](CC(=O)O)NC(=O)CNC1=O [eptifibatide] ([Mpa][hArg]GDWPC-NH2; disulfide 1-7)	inhibited	inhibited	–	–	–
rsCD154: bacterially expressed recombinant human soluble CD154 (108 a.a-261 a.a.), 18-kDa protein (protein) ENSFEMQKGDQNPQIAAHVISEASSKTTSVLQWAEKGYYTMSNNLVTLENGKQLTVKRQGLYYIYAQVTFCSNREASSQAPFIASLCLKSPGRFERILLRAANTHSSAKPCGQQSIHLGGVFELQPGASVFVNVTDPSQVSHGTGFTSFGLLKL	–	–	reconstitute a normal thrombotic process	significantly enhances	induced
